Data published in the supplement of paper PMC10126150.
± gives the standard deviation of the averaged measurements.

Tested on: ATP
Test: switch fluorescence ratio, 500 uM ATP over buffer (Cy3 cluster intensity, sum of 5 cycles each) (fold (ratio)); higher = stronger signal-on switching upon ATP binding; sequences stand for … in TCGTCGGCAGCGTCAGATGTGTATAAGAGACAGTTTTTTTTTTTTTTTTTTTTTTTTT…TC
Conditions: aptamer strand: ATP DNA aptamer (quencher-CACCTGGGGGAGTATTGCGGAGGAAGG + anchor), 100 nM annealed; ATP concentration: 500 uM
Procedure, shortened: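 The quencher-labelled ATP aptamer, at 100 nM, was annealed to Cy3-labelled switching-strand clusters on a modified Illumina MiSeq flow-cell. The clusters were imaged in selection buffer, then after 15 min with 500 uM ATP at 22 °C, and this buffer/ATP cycle ran five times with NaOH stripping and re-annealing between runs. Per-cluster fluorescence ratios, summed target-cycle over summed buffer-cycle Cy3 intensity, were averaged per switch-domain sequence. Clusters outside 100-1000 RFU were excluded.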
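Note: ATP exposure 15 min at 22 °C before imaging.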

Row | Sequence | switch fluorescence ratio
1 | GTATGGCTAG | 0.978 ± 0.029
2 | GTATGGGAAA | 1.04 ± 0.054
3 | GTATGGGGCA | 1 ± 0.029
4 | GTATGGGGCG | 1.01 ± 0.081
5 | GTATGGGGGC | 0.974 ± 0.063
6 | GTATGGGGGT | 0.963 ± 0.024
7 | GTATGGGTGT | 0.9711 ± 0.0078
8 | GTATGGTGGG | 1.02 ± 0.04
9 | GTATGTAAT | 0.997 ± 0.011
10 | GTATGTCGGT | 0.997 ± 0.051
11 | GTATTAATTT | 0.9833 ± 0.0046
12 | GTATTAGGCG | 1.02 ± 0.02
13 | GTATTATTTT | 0.979 ± 0.024
14 | GTATTGGTTG | 0.983 ± 0.026
15 | GTATTTACAT | 0.9862 ± 0.0048
16 | GTCAATGGGA | 1 ± 0.029
17 | GTCAATGGTG | 0.9901 ± 0.0074
18 | GTCAATTGAT | 0.9924 ± 0.0074
19 | GTCAATTTGT | 1.02 ± 0.018
20 | GTCACAACGG | 0.999 ± 0.024
21 | GTCACACTAT | 1.02 ± 0.034
22 | GTCACAGGCT | 1.02 ± 0.026
23 | GTCACAGTTG | 1.015 ± 0.0045
24 | GTCAGAAATG | 0.982 ± 0.013
25 | GTCAGGAAGT | 1.02 ± 0.016

Row | Sequence | switch fluorescence ratio
26 | GTCAGGGTTG | 1 ± 0.048
27 | GTCAGTAGGC | 0.991 ± 0.017
28 | GTCATAGATT | 0.989 ± 0.011
29 | GTCATAGCGT | 0.977 ± 0.016
30 | GTCATAGGGG | 1.01 ± 0.026
31 | GTCATAGTTC | 0.966 ± 0.015
32 | GTCATCAGGT | 1.008 ± 0.0058
33 | GTCATGGTAG | 1.02 ± 0.031
34 | GTCATTGATT | 1.01 ± 0.011
35 | GTCCAAAAAC | 1.15 ± 0.038
36 | GTCCACCTAC | 1.38 ± 0.015
37 | GTCCATCCCA | 1.001 ± 0.009
38 | GTCCCGACTT | 1.01 ± 0.013
39 | GTCCGGGGCT | 1.04 ± 0.036
40 | GTCCGGGGGT | 1.07 ± 0.11
41 | GTCCTTATTT | 1.08 ± 0.022
42 | GTCCTTGATA | 1.01 ± 0.024
43 | GTCGAGGATG | 1.018 ± 0.0049
44 | GTCGCGGGGT | 1.027 ± 0.0036
45 | GTCGCTGTGG | 1.04 ± 0.0021
46 | GTCGGAGCGA | 1.83 ± 0.57
47 | GTCGGAGGGG | 0.982 ± 0.043
48 | GTCGGGAAGT | 0.958 ± 0.024
49 | GTCGGGGCTG | 0.972 ± 0.049
50 | GTCGGGGGTG | 0.983 ± 0.041

Row | Sequence | switch fluorescence ratio
51 | GTCGGTTTTT | 0.972 ± 0.022
52 | GTCGTGCGTA | 1.03 ± 0.099
53 | GTCTAAATCG | 0.981 ± 0.015
54 | GTCTAAGGAA | 0.993 ± 0.016
55 | GTCTACATTG | 0.997 ± 0.01
56 | GTCTAGAAAG | 0.985 ± 0.016
57 | GTCTCGTTCC | 1.09 ± 0.14
58 | GTCTGAACGT | 0.995 ± 0.081
59 | GTCTGGCAGT | 1.01 ± 0.043
60 | GTCTGTATGT | 1.015 ± 0.0028
61 | GTCTGTGGGA | 0.9998 ± 0.0091
62 | GTCTGTTCGC | 1.02 ± 0.085
63 | GTCTTATATT | 1.01 ± 0.06
64 | GTCTTCACGG | 0.999 ± 0.01
65 | GTCTTCATGG | 0.989 ± 0.02
66 | GTCTTTGTTA | 1.01 ± 0.022
67 | GTGAAAAATT | 0.9862 ± 0.0086
68 | GTGAAAGTTT | 0.998 ± 0.062
69 | GTGAAATAGG | 0.981 ± 0.014
70 | GTGAAATTGT | 1.01 ± 0.034
71 | GTGAACGGCG | 1.06 ± 0.014
72 | GTGAATGGGG | 0.969 ± 0.042
73 | GTGAATTGGG | 1.03 ± 0.03
74 | GTGACAGGGG | 1.05 ± 0.033
75 | GTGACCCCTA | 1.13 ± 0.063

Row | Sequence | switch fluorescence ratio
76 | GTGACGAGTG | 0.993 ± 0.047
77 | GTGACTCCGA | 1.78 ± 0.12
78 | GTGACTTTGT | 1 ± 0.023
79 | GTGACTTTTA | 1.01 ± 0.035
80 | GTGAGAGCAT | 1.05 ± 0.028
81 | GTGAGAGGGT | 0.998 ± 0.029
82 | GTGAGATATT | 0.989 ± 0.043
83 | GTGAGCATGT | 1.01 ± 0.024
84 | GTGAGCGACG | 0.965 ± 0.027
85 | GTGAGGGAAC | 0.9729 ± 0.0052
86 | GTGAGGGACG | 0.999 ± 0.081
87 | GTGAGGGTCG | 1.01 ± 0.011
88 | GTGAGGTGCA | 1.01 ± 0.052
89 | GTGAGTAAGC | 1 ± 0.0035
90 | GTGAGTCTGT | 0.9891 ± 0.001
91 | GTGAGTTGGG | 1.01 ± 0.014
92 | GTGATAAAGG | 1.01 ± 0.03
93 | GTGATAAGGT | 1 ± 0.021
94 | GTGATAGATG | 1.013 ± 0.01
95 | GTGATCTATA | 0.99 ± 0.025
96 | GTGATTCGGG | 0.972 ± 0.013
97 | GTGATTGGCT | 0.978 ± 0.016
98 | GTGATTTATT | 0.988 ± 0.019
99 | GTGATTTTAT | 0.969 ± 0.028
100 | GTGATTTTTT | 1.01 ± 0.019
